PMC8465892, “CDR1 Composition Can Affect Nanobody Recombinant Expression Yields” (Biomolecules, 2021)
Changes are numbered by the printed parent chain. Names may count otherwise. One block for each binder: values may come before it.

Molecular target: T1, Her2 ectodomain-Fc (UniProt P04626 23-652)
T1 construct: Her2 ectodomain
Assay: SPR; Biacore T200, 25 °C; Her2 ectodomain-Fc immobilized by amine-coupling on a CM5 chip at 1180 RU; nanobodies injected at 30 µL/min in 20 mM Hepes, 150 mM NaCl, 3 mM EDTA, 0.005% Tween 20, pH 7.4; eight concentrations between 250 and 3.5 nM; 1:1 Langmuir model
Settings: both partners purified

- Kd: 34.7 nM
B1: A10 mutKG (VHH)
VHH: EVQLQASGGGFVQPGGSLRLSCAASGAGTSNISNMGWFRQAPGKEREFVSAISRAESRPLYYADSVKGRFTISRDNSKNTVYLQMNSLRAEDTATYYCAYMPLVRHKAYWGQGTQVTVSS
notes: A10 wt with a glycine inserted after A29 in CDR1 (G29a); also called G29a; source: gene synthetized by Twist Bioscience, pET-derived vectors, produced as previously reported [17]

- Kd: 9.9 nM
B2: A10 mutKG.1 (VHH)
VHH: B1 VHH with A6E, F11L, S50A, R89K, A90P
notes: A10 mutKG (G29a) with five framework mutations printed as Q8E, F13L, S51A, R90K, A91P; source: gene synthetized by Doulix, pET-derived vectors, produced as previously reported [17]

- Kd: 23.5 nM
B3: A10 mutG0 (VHH)
VHH: B1 VHH with G28T, T29S, S30G
notes: A10 wt with a glycine inserted after S31 in CDR1 (G31a); also called G31a; source: gene synthetized by Twist Bioscience, pET-derived vectors, produced as previously reported [17]

- Kd: 4.9 nM
B4: A10 wt (VHH)
VHH: EVQLQASGGGFVQPGGSLRLSCAASGATSNISNMGWFRQAPGKEREFVSAISRAESRPLYYADSVKGRFTISRDNSKNTVYLQMNSLRAEDTATYYCAYMPLVRHKAYWGQGTQVTVSS
notes: anti-Her2 nanobody isolated by panning a synthetic library; also called anti-Her2 ectodomain nanobody A10; source: pET-derived vectors, produced as previously reported [17]
